# The DeepSol protein solubility set
# Test: soluble on expression in E. coli; label from the status in PepcDB or PDB records
row,Sequence,soluble on expression in E. coli
1,MEVRFKIYRYNPEVDKKPYYDEYTVEVENEGVKVLTALELIKEQDPTLALRRSCREGVCGSDGMNINGKNRLACITSVGELKQPIKVNPLPGLPVIRDLIVDMKQFYKNYEKVKPYLINDDEPPVKERLQSPEDRAKLDGLYECILCACCTTSCPSFWWNPDKFIGPSGLLQAYRFIADSRDTATEQRLEDLKDPFSLFRCRTIMNCVSVCPKGLNPTEAIGKIRSALLKKNV,not soluble
2,MEVTDVRLRRVNTEGRMRAIASITLDHEFVVHDIRVIDGNNGLFVAMPSKRTPDGEFRDIAHPINSGTRSKIQDAVLTEYHRLGELEEVEFEEAGAS,not soluble
3,MEYFMSGKSIFDKLWDRHVITGDEGQPQLMYVDQHYIHEVTSPQAFQGLRDAGRKVRRPDLTFGTFDHNVPTVNIFDIRDAISKAQIDKLAENVIEFGIDNASHGSDKQGIVHMVGPETGRTQPGKFIVCGDSHTATHGAFGTIAFGIGTSEVEHVFATQTLWQVKPKK,not soluble
4,MEYGDRHITVVDEHGNEQLCEILFTFESDDFGKSYVFYYPVGVEAEDENGETEVHVSAFIPGDENKEGELLPIETEEEWDMIEEVWNTFCAEQEEEDDE,not soluble
5,MEYIKRKKTRKVRVGDIYIGGDAKITVQSMTNTDTRDVEATVNQIKMLEDIGCDIIRVAVVDQEAAEAIKEIKKSIKIPLVADIHFDYRLAISSMENGADKIRLNPGNIGDRERVRKVVEVAKSRQIPIRIGVNSGSLEKNVIEKYGGITPEAMVESALQHVRILEELDFYDIVISLKASSVPMTIAAYRLMSEKTDYPLHIGVTEAGTVFKGTIKSCAGLGCLLAEGIGDTIRVSLTGDPKEEVLVGHELLRALGIEKGGIELVSCPTCGRCQIDLIGIAEKVEERLEGLDKNIKVAIMGCAVNGPGEAKEADIGIAGGKGEVLLFKKGVIVRKIPQERAVEELMEEILRM,soluble
6,MEYPMSYTFRATFPALFLSLMLPCALPALAADPAPAKDAAAQAPVERAPLLSRSQEDAIALERQLPREDQQQLQAGDESFLALWKPANTDAPQGAVIILPGDAESPDWPDTVGPLRRKFPDVGWSSLSITLPDAQDNTLLPREPDAAAGDANAAKPEETPKDAAAKAPDPAAEAEALAAVATAKAAADEERNKAQAELIFARIESAISFAQQNKARNIVLLGHSSGAYWAARFLNERPSPAVQKLVMVAAREPVDAAPSLLAMVPGLKIKTADFIYKNPEDQAAKARLQASKRAKGPGFTQIGLINIVGNEETEQEQMFRRIRGWVEAKEEK,not soluble
7,MFADRLFNAMERNEPAPGMVLVAAPSMESEDFARSVILIIEHSEYATFGVNLASRSDVAVFNVIPEWVPCVTKPQALYIGGPLNQQSVVGVGVTAQGVDAARVDNLTRLANRLVMVNLGADPEEIKPLVSGMRLFAGHAEWAPGQLAQEIENGDWFVAPALPSDVTAPGSVDVWGDVMRRQPMPLPLYSTFPVNVVGENLEHHHHHH,soluble
8,MFAIAHNSILRDSLAGILQLSPERVFDEYRPPPFTGNIVVGVEDLRDANLRFAVRYFLANVEKSISLFIVKQEWSENDEKFFDDLVKTEYRRAHDLNQVAIDRVNKLPDNEWKSDRLEQLNEWRTIPAINYSLLTLNDNLKNQIDALAKVTPCTISDDEEQITNKPPVLHWTADPLEGEIQFIAQLNFPLSGPDDSSFREICRLLKPHFETSYEWTGGILLTSDPVRLHVQRFNDTQIELAARICVDELEGDEADRPIRFIWPYLAVSLKQALQVLGEHPHLQYSISFVPFGSIFFKSSEIEARVFDATVFCSTALKYDKVGFRVGEDVHHVDIAHIFPDGTYPSLSRLLSMNPPSPRFSRPESVNDSVSPSLMSEPPTPGGLVAPHNRGRRVSFGTIKLMSDGPTTPEIPILNGNSNDGSAKTVDAFIDKMLQQTMDQLAV,not soluble
9,MFDRYESGERAILVHVFFSQDRDTDDLLEFESLVSSAGIESLQVVTGSRKAPHPKYFVGEGKAEEIAQAVKETGAFVVLFNHALTPAQERNLERLCECRVIDRTGLILDIFAQRARTHEGKLQVELAQLRHLATRLVRGWTHLERQKGGIGLRGPGETQLETDRRLLRNRISQILLRLERVEKQREQGRRSRVRADVPTVSLVGYTNAGKSTLFNKITSAGVYVADQLFATLDPTLRRIQVDDVGDTVLADTVGFIRQLPHDLVAAFKATLQETRQASLLLHVVDAADPRLDENIDAVNDVLAEIEADEIPALLVMNKIDMLDDFVPRIDRNEENLPIRVWLSAQTGDGIPLLFQALTERLSGEIAQYTLHLPPQAGRLRSRFYQLQAIEKEWIEEDGQIGLVIRMPIADWRRLCKKEQELMDYIALEHHHHHH,not soluble
10,MFDVDIKFGDVYVRNIEEKDIGELKEILKDKKFYLNDEELKEIFLEYYMSECEFFTKILKKGKFVGVFRGRIEFKSSNMAWISYFYVDERYSSYKDSQDILMNILEYFSESFGVTDFITGVTNSEKDMIELWENNDFKTVRINKEFYSDRGYKEDLVIMKKYSAI,not soluble
11,MFEAEIDCNIPGALWCGELYVLEQDVVFPDLLRIDRFCTSKSKKMFRFDVYPGSDFPTVDLELTYKFNHNCSADGETYCVKPKWSKKVNGRVGQSVGFDIDARPHGKPSRCKPPFYF,not soluble
12,MFEKQEVEQKKELKILEIIKEAIELGASDIHLTAGAPPAVRIDGYIKFLKDFPRLTPEDTQKLAYSVMSEKHRQKLEENGQVDFSFGVRGVGRFRANVFYQRGSVAAALRSLPAEIPEFKKLGLPDKVLELCHRKMGLILVTGPTGSGKSTTIASMIDYINQTKSYHIITIEDPIEYVFKHKKSIVNQREVGEDTKSFADALRAALREDPDVIFVGEMRDLETVETALRAAETGHLVFGTLHTNTAIDTIHRIVDIFPLNQQEQVRIVLSFILQGIISQRLLPKIGGGRVLAYELLIPNTAIRNLIRENKLQQVYSLMQSGQAETGMQTMNQTLYKLYKQGLITLEDAMEASPDPKELERMIRGGRHHHHHH,soluble
13,MFEKSFTLCDMEPTEINGGRFYARPLHNDERIDDSPALQLVDAHLTVDEARTAWNHDTIYTWAVCEQTNVEMIALAALHITETATVLDIAPVGDPNRKLPNDPVLTPKTVGDAVTEIRGPITRWCTAHGINISN,not soluble
14,MFFSVVIPTYNRLPILEKCLRALEQQTFDETLISGYEIVVVDDGSTDGTLAWLDGHCQGFPHVRTWEQDHQGPAAARNLGVKEAAGDTIIFIDSDLVVTDIFLQAHAEGLQRGQKQYNSDRVFTYGAVVNTCNFDSPQSEPYKLTDYSAAFFATGNVAIAKQWLLEAGLFDTGFQLYGWEDLELGVRLKNLGLKLVKCPRAVGYHWHPPFSLQQIPKLIDQEIQRGRMGVLFYQKHPTWEVRLMIQMTRLHWFLWGLLSLGGRLNEKTMAPLLQWLIDHDRPQLALEIARIFLNWYNVQGVYAAFAESQSSHLEHHHHHH,not soluble
15,MFGLRTRNQEAESEYRRFIKGLSDSMAMIEFDTRGIILNANDLFLSCVGYTREAIVGKHHSIFCDRGYVQSPRYQQFWDDLKMGKHKRGTFERLTSQRERLVLEASYFPIESEHGQIEKVVKIASDVTQQRLESEQKEAILNALDLSLATIEFDREGYILTANQNFLKTLGYELSDVQGKHHKLFCFDDFYQENPGFWKDLAAGQFKSGQFLRRSASGDKVYIEATYNPIFDPAGNVIKVVKFASDITDKVQRDLNISQAIADSSFIARNASEEATSNVCGAEHSLNEFRTMIEEVLRAVTACDDK,not soluble
16,MFISCFDMFKIGIGPSSSHTLGPMKAGKAFVDTLEERDLLDRVTRVRADVYGSLSLTGIGHATDKAIIMGLAGFEPETVDIDAMPGFLEIVASLQRLALAGGKKTVDFSRTEGIVFHNTCLQLHENGMTITAFEGDEVLLTKAYFSIGGGFIVDKEHFGLPVEDTAVVPFPYNTAEEVLAHCDREGMSIPEFAWRNEVAANGEEAVREHLAKVWKVMQSGIERGSSAEGILPGDLRVPRRAKALRERLEATSENEPLRMMSWLNMFAMAVNEENASGGRVVTSPTNGACGVLPAVLSYWDRLVKPVGEQEVIDYLLTCGVVGALYKKNASISGAEVGCQGEVGVACSMAAAGIAQLMGATPAQAFAAAEIAMEHNLGLTCDPVCGQVQVPCIERNAIAAVTSVNAANMSLQRGSTPTVSLDQVIQTMYQTGKDMDSKYRETSLGGLAKVLMPRLMPCS,not soluble
17,MFKDFFNRTKKKKYLTVQDSKNNDVPAGIMTKCPKCKKIMYTKELAENLNVCFNCDHHIALTAYKRIEAISDEGSFTEFDKGMTSANPLDFPSYLEKIEKDQQKTGLKEAVVTGTAQLDGMKFGVAVMDSRFRMGSMGSVIGEKICRIIDYCTENRLPFILFSASGGARMQEGIISLMQMGKTSVSLKRHSDAGLLYISYLTHPTTGGVSASFASVGDINLSEPKALIGFAGRRVIEQTINEKLPDDFQTAEFLLEHGQLDKVVHRNNMRQTLSEILKIHQEVTK,not soluble
18,MFKHDCQFEDLRIIAQRVNPLDPTWNEWTLVACQKCKMLKEWQHHSEEQMHGGDLHITALPTHDYLHHIYGIVESDVDLILTHQKKARRYNRYTNAVEEHDV,not soluble
19,MFKVLAEAFASARLRLGAILFSPQSLAFLPAFCLGLYWYGGETALMITALVFPVFFLVARAKLAETVTTSRQDSVLGVMQPDGFQDIVAARFREARAGGLISTVFQIEIDDHTSLVERHGQRAAEVISTTSADRIAAVLRDRDAVTHLDTFKYAVCLEPVRQMDLELCIQLAGRIQAALEEPIALDATAVCITSSVGFCQQTKVLSRSGEAWLAAAGHALREAHLNGPGAIRAYSEKMQQKSEIRAELREEVAQALEKGQIKPWFQPQISTDTGLVTGFEALARWNHPKRGMVPPGAFLTAIEQAGMLEKLAEVMIFHAFTALKAWDSAGVCVPQVGVNFAGPELSNPKLVDKIIWELDRFDLAPERLAVEVLETVVANSPDDTITRNINGLSKLGCRIDLDDFGTGHASISSIRRFSVSRIKIDRSFVIKADRDPEQQRMISAILTMAERLEVETLAEGVESVGEHALLAQLGCDHVQGFGIGKPMPFDQTLDWIASHNAKLQATPQILPNKLRLEHHHHHH,soluble
20,MFLAGAFIAVGSLYAQSSDAEWQAGVAKLKETIQTNPAQANEEAEQLIKGKNKKNVELLVAIGEVYLKAGKLPEAQEYAALAKKVNGKSALASVLEGDIAFEQKNAGLASQKYEEAIYFDPSCTEAYLRYADIYKSANAALAIEKLEQLKAQEPSNTAVDKKLAEIYYLKNDFSKAAEAYSRFAMGPTATEEDLVKYAFALFLNHDFEKSLEVANMGLKKNARHAAFNRLAMYNYTDLKRFDEAIKAADAFFTESDKADYSYLDYMYYGHLLEALKKYDEAVGQYEKAIQLDPTKTDLYKNISSAYEQKNDYKKAISAYQKYYTSLDKLEHHHHHH,soluble
21,MFLDEHINRNFDKLNDNDLHIAHFINTHIDECKNMKIQDLAQFTHASNATIHRFTRKLGFDGYSDFKSYLKFESNKTHQLPSNSIDSFKQEIDSTFSYLERVDYQLLTEKMHTA,not soluble
22,MFLDMLSLIRGQKIKLNDALQGQSSFYIQIHYQAAFDLDIASFGLDSQYRLSDERYMTFYNQPETPCQAVRLIENQNKCSRFLVDLAKLPATIQHLVLTAAIDGQNIMSQLQQVTVQILNLQLQPIAELKLDASIFDQERATMLIEIYRKEGIWRLAAIGQGFNAGLAALIQHFGGEVAEEPTAQQTTPVAPQSNIDLKKKLSLQKAEKTGNASIIDLTKKSLVQLEKKKLLGVTARVALVLDASGSMDGQYRRGDVQKVVNRLMPLAIHFDDDGSFECWAFAAETTQLDDVTLSNVNDFINSTQRGWKNWQVGARYNEEIPAIEAVINYFQKFQDQIPTYVLFISDGGVGSRRQMQKILSQAAKLPIFWQFVGIGGRNYGALEKLDEMSGRIVDNCNFFSLDRIDGVSDERLYELLLQEFPDWLIAARQHQIVRNLEHHHHHH,not soluble
